For series [1], the system named is CsoR H61A (Mycobacterium tuberculosis). The series is described as follows: fluorescence anisotropy. The settings on record: pH 7.0, 0.2 M NaCl, 2 mM DTT, 25 °C (buffer not stated in the material).
Series [2] deals with the molecule itself.

From PMC2797707 (Journal of the American Chemical Society, 2009) come the findings set out here.

What is called stoichiometry N is a count of units in the complex or per binding partner.

Consider cso operator DNA, for which the Ka (M-1 (A2 (so in the source); ≤)) in series [1] was below 1e+10.

B1: H61A Mycobacterium tuberculosis CsoR (natural protein)
chain: MSKELTAKKRAALNRLKTVRGHLDGIVRMLESDAYCVDVMKQISAVQSSLERANRVMLHNALETCFSTAVLDGHGQAAIEELIDAVKFTPALTGPHARLGGAAVGESATEEPMPDASNM
With B1, in series [2], the “stoichiometry N” value came out at 4.
